± gives the standard error. For part of these data: Fewer inactive variants are shown than the library holds.
B1: glmS ribozyme (parent)
chain: AUAAAAGCGCCAGAACUACAGAAAUGUAGUUGACGAGGAGGAGGUUUAUCGAAUUUUCGGCGGAUGCCUCCAAA

Tests used:
Settings in all cases: with glucosamine-6-phosphate
glucosamine-6-phosphate [1] = variants of: B1; test: kcat; higher = faster cleavage; RNA array
Outline: (§1)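 E. coli RNA polymerase transcribed barcoded ribozyme variants in situ on sequenced MiSeq chips, which were tracked via a hybridised Cy3 probe at 37 °C. Tiles were imaged over ~14 h after glucosamine-6-phosphate (40 μM to 10 mM) in HEPES/KCl/Mg(OAc)2 buffer was flowed in. Normalised per-tile medians were fit to one- or two-exponential decays for kobs, and kcat and KM came from weighted Michaelis–Menten fits.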

glucosamine-6-phosphate [2] = variants of: B1; test: KM; higher = weaker cofactor use; RNA array
Outline: as §1

glucosamine-6-phosphate [3] = variants of: B1; test: self-cleavage kobs at 40 uM GlcN6P; higher = faster cleavage; RNA array
Outline: as §1

glucosamine-6-phosphate [4] = variants of: B1; test: self-cleavage kobs at 160 uM GlcN6P; higher = faster cleavage; RNA array
Outline: as §1

glucosamine-6-phosphate [5] = variants of: B1; test: self-cleavage kobs at 640 uM GlcN6P; higher = faster cleavage; RNA array
Outline: as §1

glucosamine-6-phosphate [6] = variants of: B1; test: self-cleavage kobs at 2500 uM GlcN6P; higher = faster cleavage; RNA array
Outline: as §1

glucosamine-6-phosphate [7] = variants of: B1; test: self-cleavage kobs at 10000 uM GlcN6P; higher = faster cleavage; RNA array
Outline: as §1

Row | Variant | kcat (glucosamine-6-phosphate [1]) [s⁻¹] | KM (glucosamine-6-phosphate [2]) [µM] | self-cleavage kobs at 40 uM GlcN6P (glucosamine-6-phosphate [3]) [s⁻¹] | self-cleavage kobs at 160 uM GlcN6P (glucosamine-6-phosphate [4]) [s⁻¹] | self-cleavage kobs at 640 uM GlcN6P (glucosamine-6-phosphate [5]) [s⁻¹] | self-cleavage kobs at 2500 uM GlcN6P (glucosamine-6-phosphate [6]) [s⁻¹] | self-cleavage kobs at 10000 uM GlcN6P (glucosamine-6-phosphate [7]) [s⁻¹]
1 | A39U U47C | 0.00869 ± 0.002 | 1870 ± 580 | 0.000213 ± 4.3e-05 | 0.000748 ± 0.0002 | 0.00198 ± 0.00032 | 0.00471 ± 0.00098 | 0.00934 ± 0.0026
2 | G38A U55G | < 1e-05 | – | – | < 1e-05 | – | – | –
3 | G38U G51A | < 1e-05 | – | – | – | – | < 1e-05 | –
4 | A39G A42U | 0.000818 ± 0.00016 | 1510 ± 540 | 4.94e-05 ± 1.9e-05 | 7.49e-05 ± 2.2e-05 | 0.00023 ± 5.4e-05 | 0.00045 ± 0.00014 | 0.000751 ± 0.00014
5 | A39C A53G | 0.00638 ± 0.001 | 1890 ± 400 | 0.000151 ± 1.5e-05 | 0.000404 ± 6.3e-05 | 0.00157 ± 0.00027 | 0.00372 ± 0.00061 | 0.00541 ± 0.0007
6 | A39G C58G C71A | 2.19e-05 ± 5.6e-06 | – | – | – | – | – | –
7 | G37A G43A | 2.89e-05 ± 3.1e-06 | – | < 1e-05 | < 1e-05 | – | – | 2.52e-05 ± 8.5e-06
8 | A39G U56A U57G G60U C67U C70U | 1.31e-05 ± 5.3e-06 | – | – | – | – | – | –
9 | A39G A52G | 0.00286 ± 0.00015 | 3960 ± 330 | – | 0.000117 ± 3.5e-05 | 0.000407 ± 8.1e-05 | 0.00108 ± 0.0003 | 0.00205 ± 0.00028
10 | G40C C58A | 1.41e-05 ± 2.3e-06 | – | – | < 1e-05 | – | – | –
11 | G40C C71U | 0.00477 ± 0.0015 | 1730 ± 780 | 0.000198 ± 2.6e-05 | 0.000335 ± 4.3e-05 | 0.00124 ± 0.00014 | 0.00328 ± 0.00041 | 0.00384 ± 0.00053
12 | G38C A48G | < 1e-05 | – | – | – | < 1e-05 | – | –
13 | A39C U65A | 0.000512 ± 3.7e-05 | 4220 ± 530 | – | – | 6.9e-05 ± 1.1e-05 | 0.000191 ± 2.8e-05 | 0.000359 ± 4.1e-05
14 | G38C A52G | < 1e-05 | 30.9 ± 14 | – | < 1e-05 | – | < 1e-05 | < 1e-05
15 | G38C C68A | 1.39e-05 ± 4.4e-06 | – | < 1e-05 | – | – | – | –
16 | A39C U47A | 0.00575 ± 0.0015 | 4090 ± 1400 | 8.72e-05 ± 1.3e-05 | 0.000179 ± 2.3e-05 | 0.000865 ± 0.0001 | 0.0021 ± 0.00033 | 0.00409 ± 0.00043
17 | A39C U56G | 0.00414 ± 0.0013 | 4460 ± 1800 | 5.55e-05 ± 7.3e-06 | 0.000133 ± 1.4e-05 | 0.000539 ± 6.5e-05 | 0.00125 ± 0.00015 | 0.00322 ± 0.00035
18 | G37C A64G | 9.23e-05 ± 9.1e-06 | 2450 ± 790 | – | – | – | 4.35e-05 ± 9.1e-06 | 7.49e-05 ± 8e-06

Row | Variant | kcat (glucosamine-6-phosphate [1]) [s⁻¹] | KM (glucosamine-6-phosphate [2]) [µM] | self-cleavage kobs at 40 uM GlcN6P (glucosamine-6-phosphate [3]) [s⁻¹] | self-cleavage kobs at 160 uM GlcN6P (glucosamine-6-phosphate [4]) [s⁻¹] | self-cleavage kobs at 640 uM GlcN6P (glucosamine-6-phosphate [5]) [s⁻¹] | self-cleavage kobs at 2500 uM GlcN6P (glucosamine-6-phosphate [6]) [s⁻¹] | self-cleavage kobs at 10000 uM GlcN6P (glucosamine-6-phosphate [7]) [s⁻¹]
19 | A39C G66A | 0.004 ± 0.00092 | 2860 ± 890 | 7.75e-05 ± 1.2e-05 | 0.000194 ± 3.3e-05 | 0.000666 ± 8.8e-05 | 0.00181 ± 0.00027 | 0.0033 ± 0.00049
20 | A39U U46C | 0.0117 ± 0.0022 | 2780 ± 640 | 0.000154 ± 1.5e-05 | 0.000743 ± 0.00014 | 0.00284 ± 0.00046 | 0.00541 ± 0.0019 | 0.00883 ± 0.0013
21 | A39U G40A C67A | 0.000278 ± 2.3e-05 | 760 ± 190 | – | – | 0.000124 ± 3.1e-05 | 0.000245 ± 6.5e-05 | 0.000247 ± 5e-05
22 | A39C G51A | < 1e-05 | – | – | – | – | < 1e-05 | < 1e-05
23 | G37C A42G | 7.11e-05 ± 9.9e-06 | – | – | – | – | 4.76e-05 ± 1.3e-05 | 5.87e-05 ± 1e-05
24 | G40C U47G | 0.000514 ± 9.8e-05 | 1190 ± 440 | – | 7.96e-05 ± 1.8e-05 | 0.000157 ± 2.4e-05 | 0.00041 ± 5.3e-05 | 0.000412 ± 7.9e-05
25 | A39C U45A | 0.0045 ± 0.001 | 1430 ± 550 | 0.000226 ± 5.6e-05 | 0.000456 ± 9.8e-05 | 0.00118 ± 0.0002 | 0.00392 ± 0.001 | 0.00397 ± 0.00058
26 | A39C U45C | 0.000523 ± 3.8e-05 | 3080 ± 440 | – | – | 9.68e-05 ± 1.7e-05 | 0.000214 ± 3.8e-05 | 0.000408 ± 4.5e-05
27 | G38C C71U | < 1e-05 | – | < 1e-05 | – | < 1e-05 | – | –
28 | G38A G62U | < 1e-05 | – | – | – | < 1e-05 | – | –
29 | G37C U54A U69G | 3.07e-05 ± 5e-06 | – | – | – | – | – | –
30 | G40A G41C | 0.000139 ± 2e-05 | – | – | – | 4.87e-05 ± 1.8e-05 | 0.000179 ± 4.9e-05 | 0.000123 ± 1.4e-05
31 | A39C C58G | 1.1e-05 ± 2.2e-06 | – | – | – | – | – | –
32 | A39G A48C | 0.000798 ± 0.00012 | 2140 ± 600 | – | – | 0.000196 ± 3.4e-05 | 0.000468 ± 9e-05 | 0.00063 ± 0.0001
33 | A39G A48U | 0.00118 ± 0.00016 | 5000 ± 1200 | – | – | 0.000139 ± 3.1e-05 | 0.000436 ± 8.7e-05 | 0.000774 ± 0.00011
34 | A39U C71G | 0.00162 ± 0.00048 | 3300 ± 1600 | 4.48e-05 ± 8.3e-06 | 0.000107 ± 2e-05 | 0.00022 ± 2.8e-05 | 0.00066 ± 9.6e-05 | 0.00126 ± 0.00011
35 | G38C C67U C70G | 1.59e-05 ± 1.8e-06 | – | – | – | – | – | –
